B1: Azoarcus group I ribozyme (parent)
chain: GUGCCUUGCGCCGGGAAACCACGCAAGGGAUGGUGUCAAAUUCGGCGAAACCUAAGCGCCCGCCCGGGCGUAUGGCAACGCCGAGCCAAGCUUCGGCGCCUGCGCCGAUGAAGGUGUAGAGACUAGACGGCACCCACCUAAGGCAAACGCUAUGGUGAAGGCAUAGUCCAGGGAGUGGCGAAAGUCACACAAACCGG

Variants of: B1
Assay: reverse-splicing fitness (ratio to wild type); higher = more active; in vitro selection; Mg2+ level not given
Procedure, shortened: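 An in vitro group I ribozyme library with randomized positions was T7-transcribed and gel-purified. In triplicate, 10 pmol RNA in EPPS pH 7.5 was reacted with 50 pmoles of a 30-nt RNA substrate for 1 h at 37 °C across several added MgCl2 levels (1–48 mM), then stopped with EDTA. Products were reverse transcribed from a substrate-complementary primer, PCR-amplified and sequenced (HiSeq 4000). Fitness is a variant's read proportion after selection over that before, normalised to wild type.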

Point of comparison: GUGCCUUGCGCCGGGAAACCACGCAAGGGAUGGUGUCAAAUUCGGCGAAACCUAAGCGCCCGCCCGGGCGUAUGGCAACGCGGAGCCAAGCUUCGGCGCCUGCGCCGAUGUAGGUGUAGUGACUAGACGGCACCCACCUAAGGCCAACGGUAUGGUGAAGGCAUAGUCCAGGGAGGGGCGAAAGUCACACAAACCGG [C82G A111U A120U A145C C150G U176G], reverse-splicing fitness 0.00236. Against it:
- GUGCCUUGCGCCGGGAAACCACGCAAGGGAUGGUGUCAAAUUCGGCGAAACCUAAGCGCCCGCCCGGGCGUAUGGCAACGCGGAGCCAAGCUUCGGCGCCUGCGCCGAUGUAGGUGUAGUGACUAGACGGCACCCACCUAAGGCCAACGUUAUGGUGAAGGCAUAGUCGAGGGAGCGGCGAAAGUCACACAAACCGG [C82G A111U A120U A145C C150U C169G U176C] — higher, 0.00262
- GUGCCUUGCGCCGGGAAACCACGCAAGGGAUGGUGUCAAAUUCGGCGAAACCUAAGCGCCCGCCCGGGCGUAUGGCAACGCGGAGCCAAGCUUCGGCGCCUGCGCCGAUGUAGGUGUAGUGACUAGACGGCACCCACCUAAGGCCAACGUUAUGGUGAAGGCAUAGUCCAGGGAGCGGCGAAAGUCACACAAACCGG [C82G A111U A120U A145C C150U U176C] — higher, 0.00545
- GUGCCUUGCGCCGGGAAACCACGCAAGGGAUGGUGUCAAAUUCGGCGAAACCUAAGCGCCCGCCCGGGCGUAUGGCAACGCGGAGCCAAGCUUCGGCGCCUGCGCCGAUGUAGGUGUAGUGACUAGACGGCACCCACCUAAGGCCAACGUUAUGGUGAAGGCAUAGUCCAGGGAGGGGCGAAAGUCACACAAACCGG [C82G A111U A120U A145C C150U U176G] — higher, 0.00297
- GUGCCUUGCGCCGGGAAACCACGCAAGGGAUGGUGUCAAAUUCGGCGAAACCUAAGCGCCCGCCCGGGCGUAUGGCAACGCGGAGCCAAGCUUCGGCGCCUGCGCCGAUGUAGGUGUAGUGACUAGACGGCACCCACCUAAGGCCAACGUUAUGGUGAAGGCAUAGUCCAGGGAGAGGCGAAAGUCACACAAACCGG [C82G A111U A120U A145C C150U U176A] — higher, 0.00477
- GUGCCUUGCGCCGGGAAACCACGCAAGGGAUGGUGUCAAAUUCGGCGAAACCUAAGCGCCCGCCCGGGCGUAUGGCAACGCGGAGCCAAGCUUCGGCGCCUGCGCCGAUGUAGGUGUAGUGACUAGACGGCACCCACCUAAGGCCAACGCUAUGGUGAAGGCAUAGUCAAGGGAGAGGCGAAAGUCACACAAACCGG [C82G A111U A120U A145C C169A U176A] — lower, 0.00191
- GUGCCUUGCGCCGGGAAACCACGCAAGGGAUGGUGUCAAAUUCGGCGAAACCUAAGCGCCCGCCCGGGCGUAUGGCAACGCGGAGCCAAGCUUCGGCGCCUGCGCCGAUGUAGGUGUAGUGACUAGACGGCACCCACCUAAGGCCAACGCUAUGGUGAAGGCAUAGUCAAGGGAGCGGCGAAAGUCACACAAACCGG [C82G A111U A120U A145C C169A U176C] — lower, 0.00232
- GUGCCUUGCGCCGGGAAACCACGCAAGGGAUGGUGUCAAAUUCGGCGAAACCUAAGCGCCCGCCCGGGCGUAUGGCAACGCGGAGCCAAGCUUCGGCGCCUGCGCCGAUGUAGGUGUAGUGACUAGACGGCACCCACCUAAGGCCAACGCUAUGGUGAAGGCAUAGUCAAGGGAGGGGCGAAAGUCACACAAACCGG [C82G A111U A120U A145C C169A U176G] — lower, 0.00205
- GUGCCUUGCGCCGGGAAACCACGCAAGGGAUGGUGUCAAAUUCGGCGAAACCUAAGCGCCCGCCCGGGCGUAUGGCAACGCGGAGCCAAGCUUCGGCGCCUGCGCCGAUGUAGGUGUAGUGACUAGACGGCACCCACCUAAGGCCAACGCUAUGGUGAAGGCAUAGUCUAGGGAGUGGCGAAAGUCACACAAACCGG [C82G A111U A120U A145C C169U] — higher, 0.00386
- GUGCCUUGCGCCGGGAAACCACGCAAGGGAUGGUGUCAAAUUCGGCGAAACCUAAGCGCCCGCCCGGGCGUAUGGCAACGCGGAGCCAAGCUUCGGCGCCUGCGCCGAUGUAGGUGUAGUGACUAGACGGCACCCACCUAAGGCCAACGCUAUGGUGAAGGCAUAGUCGAGGGAGUGGCGAAAGUCACACAAACCGG [C82G A111U A120U A145C C169G] — higher, 0.00383
- GUGCCUUGCGCCGGGAAACCACGCAAGGGAUGGUGUCAAAUUCGGCGAAACCUAAGCGCCCGCCCGGGCGUAUGGCAACGCGGAGCCAAGCUUCGGCGCCUGCGCCGAUGUAGGUGUAGUGACUAGACGGCACCCACCUAAGGCCAACGCUAUGGUGAAGGCAUAGUCAAGGGAGUGGCGAAAGUCACACAAACCGG [C82G A111U A120U A145C C169A] — lower, 0.00222
- GUGCCUUGCGCCGGGAAACCACGCAAGGGAUGGUGUCAAAUUCGGCGAAACCUAAGCGCCCGCCCGGGCGUAUGGCAACGCGGAGCCAAGCUUCGGCGCCUGCGCCGAUGUAGGUGUAGUGACUAGACGGCACCCACCUAAGGCCAACGUUAUGGUGAAGGCAUAGUCAAGGGAGCGGCGAAAGUCACACAAACCGG [C82G A111U A120U A145C C150U C169A U176C] — lower, 0.0022
- GUGCCUUGCGCCGGGAAACCACGCAAGGGAUGGUGUCAAAUUCGGCGAAACCUAAGCGCCCGCCCGGGCGUAUGGCAACGCGGAGCCAAGCUUCGGCGCCUGCGCCGAUGUAGGUGUAGUGACUAGACGGCACCCACCUAAGGCCAACGUUAUGGUGAAGGCAUAGUCAAGGGAGAGGCGAAAGUCACACAAACCGG [C82G A111U A120U A145C C150U C169A U176A] — lower, 0.00212
- GUGCCUUGCGCCGGGAAACCACGCAAGGGAUGGUGUCAAAUUCGGCGAAACCUAAGCGCCCGCCCGGGCGUAUGGCAACGCGGAGCCAAGCUUCGGCGCCUGCGCCGAUGUAGGUGUAGUGACUAGACGGCACCCACCUAAGGCCAACGUUAUGGUGAAGGCAUAGUCAAGGGAGGGGCGAAAGUCACACAAACCGG [C82G A111U A120U A145C C150U C169A U176G] — lower, 0.00176
- GUGCCUUGCGCCGGGAAACCACGCAAGGGAUGGUGUCAAAUUCGGCGAAACCUAAGCGCCCGCCCGGGCGUAUGGCAACGCGGAGCCAAGCUUCGGCGCCUGCGCCGAUGUAGGUGUAGUGACUAGACGGCACCCACCUAAGGCCAACGUUAUGGUGAAGGCAUAGUCCAGGGAGUGGCGAAAGUCACACAAACCGG [C82G A111U A120U A145C C150U] — higher, 0.0116
